Patent CN104610448A (WOMEN S HOSPITAL SCHOOL OF MEDICINE ZHEJIANG UNIVERSITY, dated 2015)

Key:
[1] = target: T1, HPV16E6 (pEGFP-C1-HPV16E6质粒转染293T细胞所提蛋白) (HPV16, UniProt P03126 1-158); experiment: western blot, 293T lysate, recombinant antibody
T1 construct: not shown: EGFP tag encoded by the pEGFP-C1 vector (N-terminal to the insert)

[2] = target: T2, HPV58E6 (pEGFP-C1-HPV58E6质粒转染293T细胞所提蛋白) (HPV58, UniProt P26555 1-149); experiment: western blot, 293T lysate, recombinant antibody 1:100
T2 construct: Expressed from pEGFP-C1 in 293T cells, so an EGFP fusion (band at 37-55 KD); assayed as denatured cell lysate in western blot; not shown: EGFP tag encoded by the pEGFP-C1 vector (N-terminal to the insert)
T2 sequence (looked up): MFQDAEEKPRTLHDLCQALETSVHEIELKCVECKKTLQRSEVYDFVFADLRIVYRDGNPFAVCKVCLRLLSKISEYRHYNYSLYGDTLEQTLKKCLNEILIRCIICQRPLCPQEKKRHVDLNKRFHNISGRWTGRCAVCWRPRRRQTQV

T1 sequence (P03126 whole entry): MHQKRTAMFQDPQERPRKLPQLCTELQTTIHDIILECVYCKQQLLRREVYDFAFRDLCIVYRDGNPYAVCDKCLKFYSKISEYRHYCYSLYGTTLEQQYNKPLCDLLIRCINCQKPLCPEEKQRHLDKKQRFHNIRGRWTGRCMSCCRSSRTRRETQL

B1: HPV58E6特异性兔单克隆抗体 (ZJM1b-9 H2/L1 重组抗体) (antibody, V domains shown)
VH: QSVEESGGRLVTPGTPLTLTCTVSGFSLSSKTISWVRQAPGKGLEWIGAIDSNGMKAYARWAKGRFTISKSSTTVYLKITSPTTEDTATYFCVKPNNLWGPGTLVTVSS
VL: AQVLTQTPSPVSAAVGGTVTINCQSSQSVYNNNALSWYQQKPGQPPKLLIYSASKVATGVPSRFSGSGSGAQFTLTISDLECDDAATYYCQGEFSCSSADCFAFGGGTEVVVKG
notes: Recombinant rabbit monoclonal antibody made in HEK-293-6E cells from pTT5 plasmids; also called ZJM1b-9中的H2/L1; ZJM-1-9H2/L1
binding result [1]: no binding (tested: 1:100稀释) | binding result [2]: binds
